{"source": "patent US20240409906", "about": "“INTEGRASES, LANDING PAD ARCHITECTURES, AND ENGINEERED CELLS COMPRISING THE SAME” (Asimov Inc., published 2024)", "binders": {"B1": {"name": "Int16 attB (dsDNA)", "DNA 1": "TTCTGGACCATGATGCGCCACTTCCGAAATTTCAAAAAGATCAGTGGTCAAACGGCTCATTA", "DNA 2": "TAATGAGCCGTTTGACCACTGATCTTTTTGAAATTTCGGAAGTGGCGCATCATGGTCCAGAA"}, "B2": {"name": "Int14 attB (dsDNA)", "DNA 1": "TTATTGCAAGAAAAATGGGTTATAAGTACACATCAGGTTATAGTAATATCGAAAAAGGAAGC", "DNA 2": "GCTTCCTTTTTCGATATTACTATAACCTGATGTGTACTTATAACCCATTTTTCTTGCAATAA"}, "B3": {"name": "Int13 attB (dsDNA)", "DNA 1": "CGCATACATTGTTGTTGTTTTTCCAGATCCAGTTGGTCCTGTAAATATAAGCAATCCATGTGAGT", "DNA 2": "ACTCACATGGATTGCTTATATTTACAGGACCAACTGGATCTGGAAAAACAACAACAATGTATGCG"}, "B4": {"name": "Int18 attP (dsDNA)", "DNA 1": "TATTTCTGTATTTTAGTCAAAGTAATTAAGATAAGTTAGAGTTAGTAACAGTATTTTAACTT", "DNA 2": "AAGTTAAAATACTGTTACTAACTCTAACTTATCTTAATTACTTTGACTAAAATACAGAAATA"}, "B5": {"name": "Int18 attB (dsDNA)", "DNA 1": "TCTGGTGTAGACGTTAAACGTCCAATCAAGATAACTTTATTATACATATTTTCTTCCTCCTA", "DNA 2": "TAGGAGGAAGAAAATATGTATAATAAAGTTATCTTGATTGGACGTTTAACGTCTACACCAGA"}, "B6": {"name": "Int14 attP (dsDNA)", "DNA 1": "TTATATAAAATAGTGTTTTTGTAAAGTACACATCACCATATTTGACAAAAAACCTATAAATA", "DNA 2": "TATTTATAGGTTTTTTGTCAAATATGGTGATGTGTACTTTACAAAAACACTATTTTATATAA"}, "B7": {"name": "Int15 attP (dsDNA)", "DNA 1": "TTGTTTAGTCCCTCGTTTTCTCTCGTTGGACGGAGACGAATCGAGAAACTAAAATTATAAAT", "DNA 2": "ATTTATAATTTTAGTTTCTCGATTCGTCTCCGTCCAACGAGAGAAAACGAGGGACTAAACAA"}, "B8": {"name": "Int13 attP (dsDNA)", "DNA 1": "CAATAACGGTTGTATTTGTAGAACTTGACCAGTTGTTTTAGTAACATAAATACAACTCCGAATA", "DNA 2": "TATTCGGAGTTGTATTTATGTTACTAAAACAACTGGTCAAGTTCTACAAATACAACCGTTATTG"}, "B9": {"name": "Int15 attB (dsDNA)", "DNA 1": "CTGTAACTTTTTCGGATCAAGCTATGAGGGACGCAAAGAGGGAACTAAACACTTAATTGGTG", "DNA 2": "CACCAATTAAGTGTTTAGTTCCCTCTTTGCGTCCCTCATAGCTTGATCCGAAAAAGTTACAG"}, "B10": {"name": "Int16 attP (dsDNA)", "DNA 1": "GTATCTTGATGTACAACATTACTCTTTATTTTCAAATACAGAATAATGTTGCATATAATATT", "DNA 2": "AATATTATATGCAACATTATTCTGTATTTGAAAATAAAGAGTAATGTTGTACATCAAGATAC"}}, "conditions_in_all_cases": "tags: C-terminal GS linker-SV40 NLS", "key": {"Int16": {"target": "T1, Int16 (Enterococcus faecalis D32)", "T1 chain": "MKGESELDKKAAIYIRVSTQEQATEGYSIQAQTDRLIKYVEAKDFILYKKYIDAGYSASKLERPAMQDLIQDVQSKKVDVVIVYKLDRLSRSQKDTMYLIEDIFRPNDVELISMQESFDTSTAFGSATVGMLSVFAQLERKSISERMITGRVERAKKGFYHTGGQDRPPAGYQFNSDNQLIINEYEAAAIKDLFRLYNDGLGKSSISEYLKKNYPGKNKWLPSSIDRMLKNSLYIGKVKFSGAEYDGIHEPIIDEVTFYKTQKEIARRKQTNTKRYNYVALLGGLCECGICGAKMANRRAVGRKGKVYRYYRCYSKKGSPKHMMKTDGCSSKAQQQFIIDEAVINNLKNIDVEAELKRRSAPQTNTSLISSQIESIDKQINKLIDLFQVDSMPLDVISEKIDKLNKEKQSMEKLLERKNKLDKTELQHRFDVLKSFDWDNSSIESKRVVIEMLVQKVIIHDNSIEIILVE", "experiment": "cell_activity"}, "Int14": {"target": "T2, Int14 (Listeria innocua Clip11262)", "T2 chain": "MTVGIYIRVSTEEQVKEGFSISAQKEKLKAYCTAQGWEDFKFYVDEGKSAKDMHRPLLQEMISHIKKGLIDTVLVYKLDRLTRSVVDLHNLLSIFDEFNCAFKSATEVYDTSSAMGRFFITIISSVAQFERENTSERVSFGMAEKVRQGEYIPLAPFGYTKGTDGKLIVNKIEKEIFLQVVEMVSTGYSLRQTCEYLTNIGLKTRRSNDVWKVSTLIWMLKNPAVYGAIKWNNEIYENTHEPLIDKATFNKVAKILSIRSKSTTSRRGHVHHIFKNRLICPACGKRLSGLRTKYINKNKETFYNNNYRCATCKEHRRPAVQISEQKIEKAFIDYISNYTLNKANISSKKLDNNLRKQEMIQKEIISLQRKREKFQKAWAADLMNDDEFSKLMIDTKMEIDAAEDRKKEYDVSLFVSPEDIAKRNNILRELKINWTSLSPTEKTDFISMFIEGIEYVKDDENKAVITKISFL", "experiment": "cell_activity; attB x attP EGFP inversion reporter, HEK293FT"}, "Int13": {"target": "T3, Int13 (Bacillus cytotoxicus NVH 391-98)", "T3 chain": "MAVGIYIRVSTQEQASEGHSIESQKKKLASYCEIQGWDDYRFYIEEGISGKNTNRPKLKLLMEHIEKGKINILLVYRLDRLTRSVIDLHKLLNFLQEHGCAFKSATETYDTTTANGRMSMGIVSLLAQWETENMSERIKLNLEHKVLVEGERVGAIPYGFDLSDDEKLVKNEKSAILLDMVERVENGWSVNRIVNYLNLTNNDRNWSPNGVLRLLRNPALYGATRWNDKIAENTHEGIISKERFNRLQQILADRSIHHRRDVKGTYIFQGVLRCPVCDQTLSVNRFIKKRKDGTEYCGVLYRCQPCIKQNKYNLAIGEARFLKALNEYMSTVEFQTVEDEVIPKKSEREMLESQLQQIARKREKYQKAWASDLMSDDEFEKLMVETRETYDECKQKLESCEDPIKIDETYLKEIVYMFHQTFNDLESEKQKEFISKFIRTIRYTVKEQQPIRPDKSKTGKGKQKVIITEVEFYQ", "experiment": "cell_activity; attB x attP EGFP inversion reporter, HEK293FT"}, "Int18": {"target": "T4, Int18 (Streptococcus pneumoniae JJA)", "T4 chain": "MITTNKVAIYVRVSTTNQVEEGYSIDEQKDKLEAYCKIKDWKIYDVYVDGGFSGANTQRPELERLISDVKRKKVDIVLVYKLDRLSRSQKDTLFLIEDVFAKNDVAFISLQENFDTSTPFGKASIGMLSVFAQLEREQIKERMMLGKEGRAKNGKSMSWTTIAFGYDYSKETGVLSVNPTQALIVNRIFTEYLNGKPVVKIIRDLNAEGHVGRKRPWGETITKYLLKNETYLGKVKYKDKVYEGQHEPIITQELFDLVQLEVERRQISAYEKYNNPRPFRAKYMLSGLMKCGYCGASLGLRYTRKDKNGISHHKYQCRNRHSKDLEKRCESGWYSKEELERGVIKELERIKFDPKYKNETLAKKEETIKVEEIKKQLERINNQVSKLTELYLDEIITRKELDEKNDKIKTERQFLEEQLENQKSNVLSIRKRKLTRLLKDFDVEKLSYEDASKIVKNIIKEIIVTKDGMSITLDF", "experiment": "cell_activity"}, "Int15": {"target": "T5, Int15 (Listeria monocytogenes SLCC2372 (phage …))", "T5 chain": "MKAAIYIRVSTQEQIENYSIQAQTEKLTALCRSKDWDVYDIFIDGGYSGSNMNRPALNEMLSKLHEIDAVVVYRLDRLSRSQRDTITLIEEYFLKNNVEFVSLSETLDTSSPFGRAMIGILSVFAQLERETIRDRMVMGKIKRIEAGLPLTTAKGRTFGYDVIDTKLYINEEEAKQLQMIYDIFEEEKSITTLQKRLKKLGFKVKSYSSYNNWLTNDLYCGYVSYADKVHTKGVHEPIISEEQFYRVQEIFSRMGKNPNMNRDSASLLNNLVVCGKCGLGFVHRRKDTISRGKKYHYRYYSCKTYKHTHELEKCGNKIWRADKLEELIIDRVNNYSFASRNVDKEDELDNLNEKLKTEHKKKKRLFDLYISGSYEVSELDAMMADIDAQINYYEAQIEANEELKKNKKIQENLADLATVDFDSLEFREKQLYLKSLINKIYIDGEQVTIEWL", "experiment": "cell_activity"}}}
{"binder": "B1", "values": [{"measurement": "binding signal", "setting": "Int16", "value": "0.21 fraction of Bxb1"}]}
{"binder": "B2", "values": [{"measurement": "binding signal", "setting": "Int14", "value": "0.248 fraction of Bxb1"}]}
{"binder": "B3", "values": [{"measurement": "binding signal", "setting": "Int13", "value": "0.295 fraction of Bxb1"}]}
{"binder": "B4", "values": [{"measurement": "binding signal", "setting": "Int18", "value": "1.76 fraction of Bxb1"}]}
{"binder": "B5", "values": [{"measurement": "binding signal", "setting": "Int18", "value": "1.76 fraction of Bxb1"}]}
{"binder": "B6", "values": [{"measurement": "binding signal", "setting": "Int14", "value": "0.248 fraction of Bxb1"}]}
{"binder": "B7", "values": [{"measurement": "binding signal", "setting": "Int15", "value": "1.86 fraction of Bxb1"}]}
{"binder": "B8", "values": [{"measurement": "binding signal", "setting": "Int13", "value": "0.295 fraction of Bxb1"}]}
{"binder": "B9", "values": [{"measurement": "binding signal", "setting": "Int15", "value": "1.86 fraction of Bxb1"}]}
{"binder": "B10", "values": [{"measurement": "binding signal", "setting": "Int16", "value": "0.21 fraction of Bxb1"}]}
